Here are results for 1 molecule from article PMC2115640.

For this test, the target named is TX-100 cytoskeleton. Put plainly: detergent extraction.

B1: 135-kD glycoprotein (gp135) (natural protein)
chain: HDGTIIAATSPTSGQPSTELPGGKGLITTAKTIQNTDLAITGEKVMSATVSKGPLPGSSNSVSMTLAPTQKNTVIAPDQDEKVSTNPTIATSDSKGIPDLNKSILPSATNSMKPDTPVTQTAGPGAQGNPGTTVSHMTSENTEQTTSQPPPQVKPSSITPALTSIITPTSPRQPSANSTTLKPPESSSESPDKSHTASSSLGTKVVPSSSLYGTSPTRTSSVTFWGGPQSSSGTPPVPAPTPRPAATSSSTPGISSVPGTTSLPSETESLESPSSESPSQPPKLRPTGPPSSGSSGPAASLPDEGPRSSSTQRAATAPRAPSVPSPTSAQGDDRIKCESPGRLTDKMLLLNLTRSGLCAGNNSDDKLITLLCRAAKATFNPAQDQCHIRLVPIQDTQAVAIKEITVQTNLLPRDVYELLKDKWDELKEVGVSNMKLGDQGPPEETEDRFSMPLIITIVCMASFLLLVAALYGCCHQRLSQRKDQQRLTEELQTVENGYHDNPTLEVMETSSEMQEKKVVNLNGELGDSWIVPLDNLAKDDLDEEEDTHL
B1 came in with a gp135 remaining (%) with the TX-100 cytoskeleton, 48-h cultures of 66.2% and a gp135 remaining (%) with the TX-100 cytoskeleton, 72-h cultures of 53.4%.
